{"source": "patent US8101390B2", "about": "“Mutant-type acetyltransferase Mpr1” (National University Corporation Nara Institute of Science …, priority 2006, dated 2012)", "molecules": {"B1": {"name": "Saccharomyces cerevisiae N-acetyltransferase Mpr1 variant L117V (leucine 117 to valine), SEQ ID NO:9 (Saccharomyces cerevisiae; L117V) (protein)", "chain": "MDAESIEWKLTANLRNGPTFFQPLADSIEPLQFKLIGSDTVATAFPVFDTKYIPDSLINYLFKLFNLEIESGKTYPQLHSLTKQGFLNYWFHSFAVVVLQTDEKFIQDNQDWNSVLVGTFYIKPNYAPRCSHNCNAGFLVNGAHRGQKVGYRLAQVYLNWAPLLGYKYSIFNLVFVTNQASWKIWDKLNFQRIGLVPHAGILNGFSEPVDAIIYGKDLTKIEPEFLSME"}, "B2": {"name": "Saccharomyces cerevisiae N-acetyltransferase Mpr1, wild-type, SEQ ID NO:1 (Saccharomyces cerevisiae) (protein)", "chain": "B1 chain with V117L"}, "B3": {"name": "Saccharomyces cerevisiae N-acetyltransferase Mpr1 variant F65L/L117V, SEQ ID NO:10 (Saccharomyces cerevisiae; F65L/L117V) (protein)", "chain": "B1 chain with F65L"}, "B4": {"name": "Saccharomyces cerevisiae N-acetyltransferase Mpr1 variant K63R (lysine 63 to arginine), SEQ ID NO:7 (Saccharomyces cerevisiae; K63R) (protein)", "chain": "B1 chain with K63R, V117L"}, "B5": {"name": "Saccharomyces cerevisiae N-acetyltransferase Mpr1 variant F65L (phenylalanine 65 to leucine), SEQ ID NO:8 (Saccharomyces cerevisiae; F65L) (protein)", "chain": "B1 chain with F65L, V117L"}}, "key": {"[1]": {"biological_target": "T1, Saccharomyces cerevisiae N-acetyltransferase Mpr1, wild-type, SEQ ID NO:1 (Saccharomyces cerevisiae, UniProt E9P8D2)", "T1 sequence (E9P8D2 1-229)": "B1 chain with V117L", "assay": "DTNB enzymatic activity (kinetics) of purified wild-type Mpr1", "assay_type": "biochemical", "details": "30° C., […]-0.15 mM acetyl-CoA", "description": "(§1) JM109 was inoculated in 5 ml of M9CA (CA:0.2%) medium and was cultured at. 37° C. until OD600 of the culture reached 0.7. IPTG was added to the medium to the final concentration of 0.1 mM and cells were further cultured at 18° C. for 18 hours. After the culture, cells were ice-cooled and were collected by centrifugation (8000 rpm, 5 min). Cells were washed by the addition of Lysis buffer. After centrifugation (8000 rpm, 5 min), 5 ml of Lysis buffer was added and cells were suspended therein. The suspension was subjected to ultrasonic disintegrator and was centrifuged (15000 rpm, 10 min). The supernatant was applied onto Ni-NTA column (2 ml of QIAGEN resin suspension) equilibrated with Lysis buffer. The flow-through fraction was collected and the column was washed with 10 ml of wash buffer and then fractions were collected. Further, fractions eluted with 5 ml of elution buffer were used as the purified enzyme.\n(§2) Enzymatic activities were measured for the purified wild-type Mpr1 and the purified K63R, F65L/L117V, F65L and L117V-mutant-type Mpr1s. The enzymatic activities were measured according to 5,5′-dithiobis (2-nitrobenzoic acid) (DTNB) method."}, "[2]": {"biological_target": "T2, Saccharomyces cerevisiae N-acetyltransferase Mpr1 variant L117V (leucine 117 to valine), SEQ ID NO:9 (Saccharomyces cerevisiae, UniProt E9P8D2, L117V)", "T2 sequence (E9P8D2 1-229 L117V)": "B1 chain", "assay": "DTNB enzymatic activity (kinetics) of purified L117V mutant-type Mpr1", "assay_type": "biochemical", "details": "vs wild-type", "description": "as §1, §2"}, "[3]": {"biological_target": "T3, Saccharomyces cerevisiae N-acetyltransferase Mpr1 variant K63R (lysine 63 to arginine), SEQ ID NO:7 (Saccharomyces cerevisiae, UniProt E9P8D2, K63R)", "T3 sequence (E9P8D2 1-229 K63R)": "B1 chain with K63R, V117L", "assay": "DTNB enzymatic activity (kinetics) of purified K63R mutant-type Mpr1", "assay_type": "biochemical", "details": "vs wild-type", "description": "as §1, §2"}, "[4]": {"biological_target": "T4, Saccharomyces cerevisiae N-acetyltransferase Mpr1 variant F65L (phenylalanine 65 to leucine), SEQ ID NO:8 (Saccharomyces cerevisiae, UniProt E9P8D2, F65L)", "T4 sequence (E9P8D2 1-229 F65L)": "B1 chain with F65L, V117L", "assay": "DTNB enzymatic activity (kinetics) of purified F65L mutant-type Mpr1", "assay_type": "biochemical", "details": "vs wild-type", "description": "as §1, §2"}, "[5]": {"substrate": "O=C(O)[C@@H]1CCN1", "assay": "DTNB enzymatic activity (kinetics) of purified L117V mutant-type Mpr1", "assay_type": "biochemical, Saccharomyces cerevisiae", "details": "other: L117V, 30° C., DTNB method, 0.5 mM-5 mM AZC"}, "[6]": {"substrate": "CC(=O)SCCNC(=O)CCNC(=O)[C@H](O)C(C)(C)COP(=O)(O)OP(=O)(O)OC[C@H]1O[C@@H](n2cnc3c(N)ncnc32)[C@H](O)[C@@H]1OP(=O)(O)O", "assay": "DTNB enzymatic activity (kinetics) of purified L117V mutant-type Mpr1", "assay_type": "biochemical, Saccharomyces cerevisiae", "details": "other: L117V, 30° C., DTNB method, […]-0.15 mM acetyl-CoA"}, "[7]": {"substrate": "O=C(O)[C@@H]1CCN1", "assay": "DTNB enzymatic activity (kinetics) of purified wild-type Mpr1", "assay_type": "biochemical, Saccharomyces cerevisiae", "details": "other: wild-type, 30° C., DTNB method, 0.5 mM-5 mM AZC"}, "[8]": {"substrate": "O=C(O)[C@@H]1CCN1", "assay": "DTNB enzymatic activity (kinetics) of purified F65L/L117V mutant-type Mpr1", "assay_type": "biochemical, Saccharomyces cerevisiae", "details": "other: F65L/L117V, 30° C., DTNB method, 0.5 mM-5 mM AZC"}, "[9]": {"substrate": "CC(=O)SCCNC(=O)CCNC(=O)[C@H](O)C(C)(C)COP(=O)(O)OP(=O)(O)OC[C@H]1O[C@@H](n2cnc3c(N)ncnc32)[C@H](O)[C@@H]1OP(=O)(O)O", "assay": "DTNB enzymatic activity (kinetics) of purified F65L/L117V mutant-type Mpr1", "assay_type": "biochemical, Saccharomyces cerevisiae", "details": "other: F65L/L117V, 30° C., DTNB method, […]-0.15 mM acetyl-CoA"}, "[10]": {"substrate": "O=C(O)[C@@H]1CCN1", "assay": "DTNB enzymatic activity (kinetics) of purified K63R mutant-type Mpr1", "assay_type": "biochemical, Saccharomyces cerevisiae", "details": "other: K63R, 30° C., DTNB method, 0.5 mM-5 mM AZC"}, "[11]": {"substrate": "CC(=O)SCCNC(=O)CCNC(=O)[C@H](O)C(C)(C)COP(=O)(O)OP(=O)(O)OC[C@H]1O[C@@H](n2cnc3c(N)ncnc32)[C@H](O)[C@@H]1OP(=O)(O)O", "assay": "DTNB enzymatic activity (kinetics) of purified K63R mutant-type Mpr1", "assay_type": "biochemical, Saccharomyces cerevisiae", "details": "other: K63R, 30° C., DTNB method, […]-0.15 mM acetyl-CoA"}, "[12]": {"substrate": "O=C(O)[C@@H]1CCN1", "assay": "DTNB enzymatic activity (kinetics) of purified F65L mutant-type Mpr1", "assay_type": "biochemical, Saccharomyces cerevisiae", "details": "other: F65L, 30° C., DTNB method, 0.5 mM-5 mM AZC"}, "[13]": {"substrate": "CC(=O)SCCNC(=O)CCNC(=O)[C@H](O)C(C)(C)COP(=O)(O)OP(=O)(O)OC[C@H]1O[C@@H](n2cnc3c(N)ncnc32)[C@H](O)[C@@H]1OP(=O)(O)O", "assay": "DTNB enzymatic activity (kinetics) of purified F65L mutant-type Mpr1", "assay_type": "biochemical, Saccharomyces cerevisiae", "details": "other: F65L, 30° C., DTNB method, […]-0.15 mM acetyl-CoA"}}, "note": "Substitutions are numbered along the chain they refer to. In names and notes the source's numbering stands.", "data": [{"molecule": "CC(=O)SCCNC(=O)CCNC(=O)[C@H](O)C(C)(C)COP(=O)(O)OP(=O)(O)OC[C@H]1O[C@@H](n2cnc3c(N)ncnc32)[C@H](O)[C@@H]1OP(=O)(O)O", "note": "[Acetyl-CoA, acetyl-CoA]", "values": [{"measurement": "Vmax (Acetyl-CoA)", "setting": "[1]", "value": "64.5 ± 1.29", "unit": "U/mg"}, {"measurement": "kcat (Acetyl-CoA)", "setting": "[1]", "value": "31.2 ± 0.63", "unit": "s⁻¹"}, {"measurement": "Km value for acetyl-CoA, change in words", "setting": "[2]", "value": "decreased"}, {"measurement": "Km value, change in words", "setting": "[3]", "value": "decreased"}]}, {"molecule": "O=C(O)[C@@H]1CCN1", "note": "[AZC, azetidine-2-calboxylate]", "values": [{"measurement": "Km value for AZC, change in words", "setting": "[4]", "value": "decreased"}, {"measurement": "Km value, change in words", "setting": "[3]", "value": "decreased"}]}, {"molecule": "B1", "values": [{"measurement": "Km", "setting": "[5]", "value": "1400 ± 130", "unit": "µM"}, {"measurement": "Vmax", "setting": "[5]", "value": "98.5 ± 3.34", "unit": "U/mg"}, {"measurement": "kcat", "setting": "[5]", "value": "47.6 ± 1.61", "unit": "s⁻¹"}, {"measurement": "kcat/Km", "setting": "[5]", "value": "32500 ± 2580", "unit": "M⁻¹ s⁻¹"}, {"measurement": "Km", "setting": "[6]", "value": "7.63 ± 2.03 ↓ μM"}, {"measurement": "Vmax", "setting": "[6]", "value": "79.4 ± 1.54", "unit": "U/mg"}, {"measurement": "kcat", "setting": "[6]", "value": "38.4 ± 0.74", "unit": "s⁻¹"}, {"measurement": "kcat/Km", "setting": "[6]", "value": "5e+06 ± 1.17e+06", "unit": "M⁻¹ s⁻¹"}]}, {"molecule": "B2", "values": [{"measurement": "Km", "setting": "[7]", "value": "1600 ± 90", "unit": "µM"}, {"measurement": "Vmax", "setting": "[7]", "value": "74.76 ± 1.27", "unit": "U/mg"}, {"measurement": "kcat", "setting": "[7]", "value": "36.1 ± 1.53", "unit": "s⁻¹"}, {"measurement": "kcat/Km", "setting": "[7]", "value": 22400, "unit": "M⁻¹ s⁻¹"}]}, {"molecule": "B3", "values": [{"measurement": "Km", "setting": "[8]", "value": "1800 ± 190", "unit": "µM"}, {"measurement": "Vmax", "setting": "[8]", "value": "79.4 ± 1.05", "unit": "U/mg"}, {"measurement": "kcat", "setting": "[8]", "value": "38.4 ± 2.18", "unit": "s⁻¹"}, {"measurement": "kcat/Km", "setting": "[8]", "value": 21300, "unit": "M⁻¹ s⁻¹"}, {"measurement": "Km", "setting": "[9]", "value": "13.3 ± 1.67", "unit": "µM"}, {"measurement": "Vmax", "setting": "[9]", "value": "64.9 ± 0.36", "unit": "U/mg"}, {"measurement": "kcat", "setting": "[9]", "value": "31.4 ± 0.17", "unit": "s⁻¹"}, {"measurement": "kcat/Km", "setting": "[9]", "value": "2.3e+06", "unit": "M⁻¹ s⁻¹"}]}, {"molecule": "B4", "values": [{"measurement": "Km", "setting": "[10]", "value": "1.2 ± 0.17 ↓ mM"}, {"measurement": "Vmax", "setting": "[10]", "value": "72 ± 2.98", "unit": "U/mg"}, {"measurement": "kcat", "setting": "[10]", "value": "30.6 ± 1.44", "unit": "s⁻¹"}, {"measurement": "kcat/Km", "setting": "[10]", "value": 24800, "unit": "M⁻¹ s⁻¹"}, {"measurement": "Km", "setting": "[11]", "value": "8.0 ± 2.84 ↓ μM"}, {"measurement": "Vmax", "setting": "[11]", "value": "62.4 ± 1.94", "unit": "U/mg"}, {"measurement": "kcat", "setting": "[11]", "value": "26.5 ± 0.94", "unit": "s⁻¹"}, {"measurement": "kcat/Km", "setting": "[11]", "value": "3.3e+06 ± 1.09e+06", "unit": "M⁻¹ s⁻¹"}]}, {"molecule": "B5", "values": [{"measurement": "Km", "setting": "[12]", "value": "0.7 ± 0.15 ↓ mM"}, {"measurement": "Vmax", "setting": "[12]", "value": "65.0 ± 2.74", "unit": "U/mg"}, {"measurement": "kcat", "setting": "[12]", "value": "31.4 ± 1.33", "unit": "s⁻¹"}, {"measurement": "kcat/Km", "setting": "[12]", "value": "45500 ± 8630", "unit": "M⁻¹ s⁻¹"}, {"measurement": "Km", "setting": "[13]", "value": "10.3 ± 1.46", "unit": "µM"}, {"measurement": "Vmax", "setting": "[13]", "value": "63.7 ± 3.34", "unit": "U/mg"}, {"measurement": "kcat", "setting": "[13]", "value": "30.8 ± 0.61", "unit": "s⁻¹"}, {"measurement": "kcat/Km", "setting": "[13]", "value": "2.9e+06", "unit": "M⁻¹ s⁻¹"}]}]}
